B1: c138 Fc dimer (polypeptide homodimer Fc fusion) (Fc fusion)
chain: HLPKPTLWAEPGSVITMDQPVTLRCQGGQETQQYRLYREKKTAPWITRIPQELVKKGQFPIPSITWEHAGRYRCYYGSDTRQWSASSDPLELVVTGVYIKPTLSAQPSPVVNSGGNVTLQCDSPFQADGFILCKEGEDDHPQCLNSQPHARGSSRAIFSVGPVSPSRRWRYRCYAYDSNSPYEWSLPSDLLELDVDGRMDPSRSVECPPCPAPPVAGPSVFLFPPKPKDTLMISRTPEVTCVVVDVSHEDPEVKFNWYVDGVEVHNAKTKPREEQYNSTYRVVSVLTVLHQDWLNGKEYKCKVSNKGLPSSIEKTISKAKGQPREPQVYTLPPSREEMTKNQVSLTCLVKGFYPSDIAVEWESNGQPENNYKTTPPVLDSDGSFFLYSKLTVDKSRWQQGNVFSCSVMHEGLHNHYTQKSLSLSPGK
B2: c132 Fc dimer (ILT Fc fusion homodimer) (Fc fusion)
chain: HLPKPTLWAEPGSVITMDQPVTLRCQGGQETQEYRLYREKKTAPWITRIPQELVKKGQFPIPSITWEHAGRYRCYYGSDTSQWSASSDPLELVVTGVYIKPTLSAQPSPVVNSGGNVTLQCDSPFQADGFILCKEGEDEHPQCLNSQPHARGSSRAIFSVGPVSPSRRWWYRCYAYMSWSPYEWSLPSDLLELDVDGRMDPSRSVECPPCPAPPVAGPSVFLFPPKPKDTLMISRTPEVTCVVVDVSHEDPEVKFNWYVDGVEVHNAKTKPREEQYNSTYRVVSVLTVLHQDWLNGKEYKCKVSNKGLPSSIEKTISKAKGQPREPQVYTLPPSREEMTKNQVSLTCLVKGFYPSDIAVEWESNGQPENNYKTTPPVLDSDGSFFLYSKLTVDKSRWQQGNVFSCSVMHEGLHNHYTQKSLSLSPGK
B3: c64 Fc dimer (ILT Fc fusion homodimer) (Fc fusion)
chain: HLPKPTLWAEPGSVITMDQPVTLRCQGGQETQQYRLYREKKTAPWITRIPQELVKKGQFPIPSITWEHAGRYRCYYGSDTRQWSASSDPLELVVTGVYIKPTLSAQPSPVVNSGGNVTLQCDSQVAFDGFILCKEGEDDHPQCLNSQPHARGSSRAIFSVGPVSPSRRWRYRCYAYDSNSPYEWSLPSDLLELDVDGRMDPSRSVECPPCPAPPVAGPSVFLFPPKPKDTLMISRTPEVTCVVVDVSHEDPEVKFNWYVDGVEVHNAKTKPREEQYNSTYRVVSVLTVLHQDWLNGKEYKCKVSNKGLPSSIEKTISKAKGQPREPQVYTLPPSREEMTKNQVSLTCLVKGFYPSDIAVEWESNGQPENNYKTTPPVLDSDGSFFLYSKLTVDKSRWQQGNVFSCSVMHEGLHNHYTQKSLSLSPGK

The assay has as its target Class I pMHC on target cells (Mel 624). The assay is described as follows: cell-based or functional assay.
On to B1, for which the IC50 of inhibition of T cell activation (IFN-γ ELISPOT; Mel 624 target cells, MART-1 specific T cell clone) was determined as 0.4 nM.
As for B2, the IC50 of inhibition of T cell activation (IFN-γ ELISPOT; Mel 624 target cells, MART-1 specific T cell clone) was determined as 0.45 nM.
In turn, B3 gave an IC50 of inhibition of T cell activation (IFN-γ ELISPOT; Mel 624 target cells, MART-1 specific T cell clone) of 2.3 nM.

Values taken from US20100135997A1.
